The text below walks through data of PMC3691460 (The Journal of Cell Biology, 2013).

Test [1] concerns αIIbβ3 headpiece ligand binding site. The test can be described thus: Occupancy of ligand binding site by soaked RGD peptide. Conditions: 10 mM GRGDSP, Mg/Ca (5 mM Mg/1 mM Ca), 24 h, closed headpiece crystals.
The target in test [2] is αIIbβ3 integrin headpiece (UniProt P08514). In words: crystal structure.
Test [3] concerns the target T1, αIIb subunit β-propeller domain (UniProt P08514).
T1 sequence: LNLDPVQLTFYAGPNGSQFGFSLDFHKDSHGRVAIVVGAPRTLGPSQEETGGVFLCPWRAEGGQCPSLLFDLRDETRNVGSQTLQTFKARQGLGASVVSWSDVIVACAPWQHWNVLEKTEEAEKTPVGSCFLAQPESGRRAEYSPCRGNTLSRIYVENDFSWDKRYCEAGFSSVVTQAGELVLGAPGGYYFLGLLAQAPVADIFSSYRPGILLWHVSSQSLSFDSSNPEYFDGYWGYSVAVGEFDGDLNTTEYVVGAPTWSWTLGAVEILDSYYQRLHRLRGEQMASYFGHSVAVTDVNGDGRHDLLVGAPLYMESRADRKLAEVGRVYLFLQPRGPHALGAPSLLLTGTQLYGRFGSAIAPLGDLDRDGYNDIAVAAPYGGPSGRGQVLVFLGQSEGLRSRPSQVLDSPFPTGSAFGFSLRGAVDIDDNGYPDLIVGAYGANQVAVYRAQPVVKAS
The test can be described thus: crystal structure.

Test [4] concerns the target T2, β3 subunit PSI, hybrid, βI, and I-EGF-1 domains (UniProt P05106).
T2 sequence: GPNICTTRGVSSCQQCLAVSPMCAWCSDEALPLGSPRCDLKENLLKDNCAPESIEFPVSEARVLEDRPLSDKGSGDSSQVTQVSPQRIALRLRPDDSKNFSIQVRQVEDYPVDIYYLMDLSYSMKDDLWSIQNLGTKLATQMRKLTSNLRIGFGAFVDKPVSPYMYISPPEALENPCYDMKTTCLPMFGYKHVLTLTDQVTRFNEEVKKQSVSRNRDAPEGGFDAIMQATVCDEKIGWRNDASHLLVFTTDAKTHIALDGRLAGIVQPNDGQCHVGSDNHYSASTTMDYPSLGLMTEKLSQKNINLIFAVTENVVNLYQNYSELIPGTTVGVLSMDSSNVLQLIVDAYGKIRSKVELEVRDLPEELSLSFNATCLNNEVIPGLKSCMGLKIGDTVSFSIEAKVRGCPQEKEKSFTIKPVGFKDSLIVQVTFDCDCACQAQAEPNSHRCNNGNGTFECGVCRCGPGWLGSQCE
The test can be described thus: crystal structure.

In a further test the test system is α4β7 headpiece. Conditions: EM; ref Yu et al., 2012; cited from earlier work.
In test [5] the target is T3, αIIbβ3 integrin headpiece (UniProt P08514;P05106).
T3 sequence 1: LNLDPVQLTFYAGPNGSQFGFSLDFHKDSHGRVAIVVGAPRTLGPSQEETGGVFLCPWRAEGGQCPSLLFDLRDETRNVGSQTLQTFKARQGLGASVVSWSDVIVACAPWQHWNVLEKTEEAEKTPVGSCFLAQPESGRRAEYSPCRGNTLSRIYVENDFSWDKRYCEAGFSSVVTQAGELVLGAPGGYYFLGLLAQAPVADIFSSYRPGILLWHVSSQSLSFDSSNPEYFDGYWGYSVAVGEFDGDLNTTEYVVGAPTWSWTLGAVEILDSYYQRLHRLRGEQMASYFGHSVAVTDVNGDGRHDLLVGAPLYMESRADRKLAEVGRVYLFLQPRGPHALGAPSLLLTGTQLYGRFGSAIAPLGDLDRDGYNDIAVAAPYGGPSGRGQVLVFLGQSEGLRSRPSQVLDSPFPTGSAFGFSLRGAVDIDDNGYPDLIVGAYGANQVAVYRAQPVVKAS
T3 sequence 2: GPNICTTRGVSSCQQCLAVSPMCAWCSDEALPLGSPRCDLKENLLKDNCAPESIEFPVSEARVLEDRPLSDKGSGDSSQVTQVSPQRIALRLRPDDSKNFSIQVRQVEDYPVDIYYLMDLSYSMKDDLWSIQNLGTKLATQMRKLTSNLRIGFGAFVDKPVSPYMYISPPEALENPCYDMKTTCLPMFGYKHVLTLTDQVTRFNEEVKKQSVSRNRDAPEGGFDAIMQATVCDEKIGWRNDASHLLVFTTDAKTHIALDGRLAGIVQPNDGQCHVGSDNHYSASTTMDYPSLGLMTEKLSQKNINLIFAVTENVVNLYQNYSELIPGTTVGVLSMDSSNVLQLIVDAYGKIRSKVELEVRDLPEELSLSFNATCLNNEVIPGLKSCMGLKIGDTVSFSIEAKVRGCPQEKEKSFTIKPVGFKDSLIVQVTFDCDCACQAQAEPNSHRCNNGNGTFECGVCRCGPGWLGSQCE
In words: crystal structure.

Bounds are passed on as bounds.

Consider `N=C(N)NCCC[C@H](NC(=O)CN)C(=O)NCC(=O)N[C@@H](CC(=O)O)C(=O)N[C@@H](CO)C(=O)N1CCC[C@H]1C(=O)O` [GRGDSP], for which the “Bound ligand / occupation of the ligand binding site” value in test [1] is given as “diffraction revealed bound peptide”.

The term Kd denotes a measure of binding affinity in units of concentration. Higher therefore signals weaker binding. Take GRGDSP peptide: in test [2], the dissociation constant Kd lay in the range of 0.34 to 10 mM and the fold higher affinity of the open than of the closed headpiece was more than 200 fold. Turning to GRGDSP [GRGDSP peptide], the binding result in test [3] and in test [4] was “binds” throughout.

B1: MAdCAM-1: ligand binding to the α4β7 headpiece (protein, UniProt Q13477 19-382, looked up)
Mucosal addressin cell …: QSLQVKPLQVEPPEPVVAVALGASRQLTCRLACADRGASVQWRGLDTSLGAVQSDTGRSVLTVRNASLSAAGTRVCVGSCGGRTFQHTVQLLVYAFPDQLTVSPAALVPGDPEVACTAHKVTPVDPNALSFSLLVGGQELEGAQALGPEVQEEEEEPQGDEDVLFRVTERWRLPPLGTPVPPALYCQATMRLPGLELSHRQAIPVLHSPTSPEPPDTTSPESPDTTSPESPDTTSQEPPDTTSPEPPDKTSPEPAPQQGSTHTPRSPGSTRTRRPEISQAGPTQGEVIPTGSSKPAGDQLPAALWTSSAVLGLLLLALPTYHLWKRCRHLAEDDTHPPASLRLLPQVSAWAGLRGTGQVGISPS
As for B1, the “State of the headpiece upon binding” value with α4β7 headpiece is listed as “either an intermediate or open state”.

With GRGDSPK [GRGDSPK peptide], in test [5], the binding result was “binds”.
